The record followed here is the supplement of paper PMC10126150.

± gives the standard deviation of the averaged measurements.
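Note: ATP exposure 15 min at 22 °C before imaging.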

The series has as its system ATP. Kind of series: switch fluorescence ratio, 500 uM ATP over buffer (Cy3 cluster intensity, sum of 5 cycles each) (fold (ratio)); higher = stronger signal-on switching upon ATP binding; sequences stand for … in TCGTCGGCAGCGTCAGATGTGTATAAGAGACAGTTTTTTTTTTTTTTTTTTTTTTTTT…TC. The conditions noted are these: aptamer strand: ATP DNA aptamer (quencher-CACCTGGGGGAGTATTGCGGAGGAAGG + anchor), 100 nM annealed; ATP concentration: 500 uM. The essentials: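 For every switch-domain sequence, the fluorescence ratio is the mean of per-cluster values, each being summed target-cycle Cy3 intensity over summed buffer-cycle Cy3 intensity. Clusters outside 100-1000 RFU were excluded. On a modified Illumina MiSeq flow-cell, the Cy3-labelled switching-strand clusters were annealed to 100 nM quencher-labelled ATP aptamer, imaged in selection buffer and then after 15 min with 500 uM ATP at 22 °C. Five such cycles were run, with NaOH stripping and re-annealing between them.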
For AGCGATTGCC, the switch fluorescence ratio stood at 1.01 ± 0.016.

With TTTGGGAGTG, the switch fluorescence ratio was 0.965 ± 0.037.

Regarding CGGGGGCTCC, the switch fluorescence ratio worked out at 1.02 ± 0.021.

AATCAGGGGG: the switch fluorescence ratio came to 1.01 ± 0.04.

Turning to GCTAGCGGTC, the switch fluorescence ratio was 1.08 ± 0.02.

Take GGAGTAGGGA: the switch fluorescence ratio stood at 1.02 ± 0.031.

As for ATTTTTGGCT, the switch fluorescence ratio came out at 0.995 ± 0.042.

As to GTTGTTACTG, the switch fluorescence ratio turned out to be 1.02 ± 0.019.

Consider TCATTTTTGC, for which the switch fluorescence ratio is 0.979 ± 0.052.

In the case of TCTATGGGGG, the switch fluorescence ratio was 0.986 ± 0.019.

For TCAGCTGCAA, the switch fluorescence ratio is 4.21 ± 0.32.

Turning to ATAGTTGCGG, the switch fluorescence ratio is 1.047 ± 0.0011.

Consider GGGGGAGTCA, for which the switch fluorescence ratio was determined as 1 ± 0.056.

Regarding TACTCACTTC, the switch fluorescence ratio is 1.21 ± 0.035.

Regarding ACGTGCGGGC, the switch fluorescence ratio turned out to be 1.05 ± 0.013.

Turning to AGTTTTTAGC, the switch fluorescence ratio was determined as 1.01 ± 0.047.

Turning to TATGTGGGAT, the switch fluorescence ratio was found to be 0.9734 ± 0.0016.

Regarding TAGGGGCGGC, the switch fluorescence ratio was 1.01 ± 0.056.

Regarding AGGGATGGGA, the switch fluorescence ratio amounted to 1.01 ± 0.019.

As for ATGAAAAAAT, the switch fluorescence ratio came to 0.974 ± 0.015.

With AGTTCAAGCT, the switch fluorescence ratio was 1.02 ± 0.007.

For TTCGGACGGT, the switch fluorescence ratio turned out to be 1.04 ± 0.06.

As for AACTATATCT, the switch fluorescence ratio worked out at 1.05 ± 0.021.

As for GTTACTTGCT, the switch fluorescence ratio turned out to be 1.01 ± 0.059.

TTTCTTGTTT: the switch fluorescence ratio stood at 0.985 ± 0.055.

For the sequence AGGGTGTGCA, the switch fluorescence ratio amounted to 0.999 ± 0.049.

With GGGAGAGGGG, the switch fluorescence ratio worked out at 0.987 ± 0.02.

Take TCACATTTGG: the switch fluorescence ratio came out at 1.03 ± 0.045.

With TTTTTTCGTG, the switch fluorescence ratio is 1.001 ± 0.0077.

On to TAGGCTAGGT, for which the switch fluorescence ratio worked out at 1.017 ± 0.0047.

For the sequence AGTCGGTGTG, the switch fluorescence ratio stood at 0.963 ± 0.0099.

On to AACCGGGGTT, for which the switch fluorescence ratio was found to be 0.996 ± 0.046.

Turning to AAGCTGGCTG, the switch fluorescence ratio was determined as 0.945 ± 0.029.

Take GCGGGCCCTT: the switch fluorescence ratio was 1.01 ± 0.012.

GTATGCGTGC: the switch fluorescence ratio came out at 1.04 ± 0.017.

Turning to AAGTAGTAGT, the switch fluorescence ratio was 1.007 ± 0.0043.

Regarding GATAGACTTT, the switch fluorescence ratio is 1.02 ± 0.048.

For GGGGGAGTCG, the switch fluorescence ratio turned out to be 1.02 ± 0.048.

Consider TGTCTTTTTA, for which the switch fluorescence ratio turned out to be 0.995 ± 0.028.

Take GCTCCAGTTA: the switch fluorescence ratio is 1.178 ± 0.0045.

Consider TTATTTAGGG, for which the switch fluorescence ratio was 0.991 ± 0.0055.

Take TTAGGAAAGT: the switch fluorescence ratio worked out at 0.9873 ± 0.0075.

Consider GATATTAGAT, for which the switch fluorescence ratio stood at 1.02 ± 0.046.

In the case of AAAATCGTCT, the switch fluorescence ratio is 1.08 ± 0.086.

Regarding GGGGACCGCG, the switch fluorescence ratio was found to be 0.969 ± 0.016.

Take ATAACGGGAT: the switch fluorescence ratio was found to be 1.26 ± 0.42.

With TATCAACTTG, the switch fluorescence ratio was 1.02 ± 0.037.

Turning to AGGTTTTTAG, the switch fluorescence ratio is 0.944 ± 0.024.

As for GAGGGGATGT, the switch fluorescence ratio was found to be 0.978 ± 0.026.

For the sequence CGTTGGAATA, the switch fluorescence ratio came out at 1.01 ± 0.042.

As to AGAGTTGTGG, the switch fluorescence ratio was 0.982 ± 0.024.

Consider GGTTCGGCTG, for which the switch fluorescence ratio stood at 0.982 ± 0.012.

For the sequence TCAGTAACGT, the switch fluorescence ratio came out at 1.02 ± 0.013.

On to CATGTAAGGA, for which the switch fluorescence ratio was 0.985 ± 0.015.

With GGGCCAGGGC, the switch fluorescence ratio was determined as 1.02 ± 0.02.

Turning to TAAGGCGCCG, the switch fluorescence ratio worked out at 0.962 ± 0.031.

For GGTACAGTTT, the switch fluorescence ratio came out at 0.975 ± 0.019.

With TTTTGATTTG, the switch fluorescence ratio was 1 ± 0.034.

Turning to GTTGGTGATT, the switch fluorescence ratio turned out to be 0.9959 ± 0.0062.

For the sequence ATTCACATAT, the switch fluorescence ratio was determined as 1.11 ± 0.02.

As for GGGTGTGGGG, the switch fluorescence ratio is 0.989 ± 0.046.

For the sequence TTGTAATCAG, the switch fluorescence ratio was 0.966 ± 0.045.

On to TACGGAGGGC, for which the switch fluorescence ratio came out at 1.02 ± 0.05.

On to GGATTAGGGC, for which the switch fluorescence ratio was determined as 1.02 ± 0.041.

For the sequence ACTGTTATAT, the switch fluorescence ratio was 1.044 ± 0.0053.

TGCGATTATG: the switch fluorescence ratio was determined as 1.02 ± 0.041.

Consider GGTCTAGG, for which the switch fluorescence ratio worked out at 0.992 ± 0.036.

Regarding ATTAAAAGGA, the switch fluorescence ratio came out at 0.991 ± 0.073.

As to ACGTTGGCGT, the switch fluorescence ratio stood at 0.966 ± 0.041.

With CCCGTGTGAG, the switch fluorescence ratio turned out to be 0.983 ± 0.045.

On to CGTAGTTTTG, for which the switch fluorescence ratio was found to be 1.007 ± 0.0074.

On to TGTTTGTCTA, for which the switch fluorescence ratio stood at 1.01 ± 0.011.

Turning to AATACCCGGG, the switch fluorescence ratio amounted to 1.021 ± 0.0045.

With TTAGGTTATT, the switch fluorescence ratio came to 0.9786 ± 0.0027.

As to ATAATAGGGC, the switch fluorescence ratio turned out to be 1 ± 0.015.

On to GTGTGGGGCT, for which the switch fluorescence ratio is 1 ± 0.019.

Regarding TGAGTAGATA, the switch fluorescence ratio stood at 1.01 ± 0.018.

As to TTAGAAAAGG, the switch fluorescence ratio was found to be 1 ± 0.032.

With TTTTTGTCTT, the switch fluorescence ratio amounted to 0.96 ± 0.023.
